Test results taken from patent US20090111753A1, “Nogo-A Polypeptide Fragments, Variant Nogo Receptor-1 Polypeptides, and Uses Thereof” (Yale University, priority 2004, published 2009).

T1: human NgR2 (Homo sapiens, UniProt Q86UN3)
T1 construct: expressed in transfected cells; host or cells: COS-7
T1 sequence (Q86UN3 47-390): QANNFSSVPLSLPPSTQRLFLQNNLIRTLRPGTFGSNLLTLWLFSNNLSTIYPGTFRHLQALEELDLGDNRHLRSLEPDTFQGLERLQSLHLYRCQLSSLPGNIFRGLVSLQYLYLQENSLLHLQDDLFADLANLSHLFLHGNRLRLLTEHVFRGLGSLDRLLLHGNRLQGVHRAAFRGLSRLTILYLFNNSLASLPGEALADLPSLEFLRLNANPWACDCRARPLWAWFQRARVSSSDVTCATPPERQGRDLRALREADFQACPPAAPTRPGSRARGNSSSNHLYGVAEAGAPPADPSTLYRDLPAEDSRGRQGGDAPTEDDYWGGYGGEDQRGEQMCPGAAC

T2: mouse NgR3 (Mus musculus, UniProt Q8K0S5)
T2 construct: expressed in transfected cells; host or cells: COS-7
T2 sequence (Q8K0S5 25-424): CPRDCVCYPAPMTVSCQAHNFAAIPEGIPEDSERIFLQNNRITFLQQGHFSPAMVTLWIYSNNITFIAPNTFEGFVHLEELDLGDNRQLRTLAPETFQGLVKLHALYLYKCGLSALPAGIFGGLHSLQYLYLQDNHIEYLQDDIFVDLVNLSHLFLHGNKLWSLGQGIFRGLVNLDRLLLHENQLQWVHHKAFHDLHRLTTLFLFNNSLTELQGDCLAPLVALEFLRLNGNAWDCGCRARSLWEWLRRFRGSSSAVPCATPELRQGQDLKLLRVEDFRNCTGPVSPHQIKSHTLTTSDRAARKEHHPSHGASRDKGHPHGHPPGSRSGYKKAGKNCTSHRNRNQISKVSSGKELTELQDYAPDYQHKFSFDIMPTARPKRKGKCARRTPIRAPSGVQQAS

T3: AP-fused Amino-Nogo fragment A (a.a. 181-864) (human, UniProt Q9NQC3 181-864)
T3 construct: AP put first by the name; also called AmNg A; AP-AmNgA; not shown: alkaline phosphatase (AP), vector pcAP6
T3 sequence: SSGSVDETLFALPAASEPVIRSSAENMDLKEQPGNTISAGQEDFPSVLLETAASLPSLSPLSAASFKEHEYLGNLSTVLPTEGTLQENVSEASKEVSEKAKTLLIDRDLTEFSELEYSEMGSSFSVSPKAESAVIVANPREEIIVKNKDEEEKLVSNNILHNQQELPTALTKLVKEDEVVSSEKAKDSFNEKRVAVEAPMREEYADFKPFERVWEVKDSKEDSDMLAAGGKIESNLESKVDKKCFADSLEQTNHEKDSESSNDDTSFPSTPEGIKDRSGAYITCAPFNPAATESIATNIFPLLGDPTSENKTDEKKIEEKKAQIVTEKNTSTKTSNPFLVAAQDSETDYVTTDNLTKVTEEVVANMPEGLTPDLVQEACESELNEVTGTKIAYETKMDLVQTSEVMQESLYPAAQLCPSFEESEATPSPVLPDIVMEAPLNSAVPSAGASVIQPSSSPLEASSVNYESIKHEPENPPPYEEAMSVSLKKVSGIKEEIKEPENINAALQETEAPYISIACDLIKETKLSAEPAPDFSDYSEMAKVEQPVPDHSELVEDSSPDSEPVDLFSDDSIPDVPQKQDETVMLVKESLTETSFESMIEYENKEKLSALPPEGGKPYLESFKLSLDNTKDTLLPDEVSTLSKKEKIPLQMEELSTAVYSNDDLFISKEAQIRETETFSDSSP

B1: AP-Nogo-66: AP fusion protein of the Nogo-66 domain (protein)
chain: RIYKGVIQAIQKSDEGHPFRAYLESEVAISEELVQKYSNSALGHVNCTIKELRRLFLVDDLVDSLK
modifications: left off: large carriers
notes: AP fusion protein of the Nogo-66 domain
B2: mouse NgR3 expressed on COS-7 cells (receptor, UniProt Q8K0S5 25-424, looked up)
chain: T2 sequence (Q8K0S5 25-424)
notes: whole, on cells; tagged (anti-Myc or anti-His detection); tag not specified
B3: AP-fused Amino-Nogo fragment B (a.a. 622-1018) (ligand)
chain: SAVPSAGASVIQPSSSPLEASSVNYESIKHEPENPPPYEEAMSVSLKKVSGIKEEIKEPENINAALQETEAPYISIACDLIKETKLSAEPAPDFSDYSEMAKVEQPVPDHSELVEDSSPDSEPVDLFSDDSIPDVPQKQDETVMLVKESLTETSFESMIEYENKEKLSALPPEGGKPYLESFKLSLDNTKDTLLPDEVSTLSKKEKIPLQMEELSTAVYSNDDLFISKEAQIRETETFSDSSPIEIIDEFPTLISSKTDSFSKLAREYTDLEVSHKSEIANAPDGAGSLPCTELPHDLSLKNIQPKVEEKISFSDDFSKNGSATSKVLLLPPDVSALATQAEIESIVKPKVLVKEAEKKLPSDTEKEDRSPSAIFSAELSKTSVVDLLYWRDIKKTG
notes: also called AmNg B; AP-AmNgB; not shown: alkaline phosphatase (AP), vector pcAP6

How the values were obtained:
human NgR2 = molecular target: T1, human NgR2; conditions: expressed on the surface of COS-7 cells; Barton et al. 2003; cited from earlier work
mouse NgR3 = molecular target: T2, mouse NgR3; conditions: expressed on the surface of COS-7 cells; Barton et al. 2003; cited from earlier work
[1] = molecular target: T3, AP-fused Amino-Nogo fragment A (a.a. …); experiment: AP fusion on COS-7 cells expressing mouse NgR3
Description: (§1) FIG. 3B. […] Conditioned media from transfected HEK293T cells containing 20 nM of indicated AP fusion protein were applied to COS-7 cells expressing mouse NgR1, human NgR2 or mouse NgR3 and bound AP was stained. Surface expression of NgR5 was detected using anti-Myc or anti-His antibodies. AP-AmNgA: AP fusion protein of Amino-Nogo fragment A. AP-AmNgB: AP fusion protein of Amino-Nogo fragment B.

[2] = molecular target: B2; experiment: AP fusion on COS-7 cells expressing mouse NgR3
Description: as §1

Molecule: B1
binding to NgR2 (human NgR2): do not bind
binding to NgR3 (mouse NgR3): do not bind

Molecule: B2
binding result [1]: no binding (tested: 20 nM)

Molecule: B3
binding result [2]: no binding (tested: 20 nM)
